According to PMC10397247:

Columns and labels:
4H1446-bA = target: T1, 4H1446-bA; assay: two-hybrid library CCNG1;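 also: natural log of median RNA to DNA barcode read ratio; higher means stronger binding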
T1 chain: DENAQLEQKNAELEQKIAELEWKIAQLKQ

4H4001-bA = target: T2, 4H4001-bA; assay: two-hybrid library CCNG1;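 also: natural log of median RNA to DNA barcode read ratio; higher means stronger binding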
T2 chain: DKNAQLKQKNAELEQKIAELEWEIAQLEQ

4H797-bA = target: T3, 4H797-bA; assay: two-hybrid library CCNG1;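 also: natural log of median RNA to DNA barcode read ratio; higher means stronger binding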
T3 chain: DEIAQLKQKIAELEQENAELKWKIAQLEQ

4H687-bA = target: T4, 4H687-bA; assay: two-hybrid library CCNG1;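 also: natural log of median RNA to DNA barcode read ratio; higher means stronger binding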
T4 chain: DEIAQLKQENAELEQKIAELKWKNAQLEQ

4H2667-bA = target: T5, 4H2667-bA; assay: two-hybrid library CCNG1;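 also: natural log of median RNA to DNA barcode read ratio; higher means stronger binding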
T5 chain: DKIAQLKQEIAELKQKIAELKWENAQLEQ

4H918-bA = target: T6, 4H918-bA; assay: two-hybrid library CCNG1;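 also: natural log of median RNA to DNA barcode read ratio; higher means stronger binding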
T6 chain: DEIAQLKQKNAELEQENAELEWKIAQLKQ

4H462-bA = target: T7, 4H462-bA; assay: two-hybrid library CCNG1
T7 chain: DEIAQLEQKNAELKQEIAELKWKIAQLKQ

4H1328-bA = target: T8, 4H1328-bA; assay: two-hybrid library CCNG1
T8 chain: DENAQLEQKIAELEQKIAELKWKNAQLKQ

4H3189-bA = target: T9, 4H3189-bA; assay: two-hybrid library CCNG1
T9 chain: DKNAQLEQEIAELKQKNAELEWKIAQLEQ

4H370-bA = target: T10, 4H370-bA; assay: two-hybrid library CCNG1
T10 chain: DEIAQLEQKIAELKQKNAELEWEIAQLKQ

4H3782-bA = target: T11, 4H3782-bA; assay: two-hybrid library CCNG1
T11 chain: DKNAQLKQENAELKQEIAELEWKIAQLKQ

4H2610-bA = target: T12, 4H2610-bA; assay: two-hybrid library CCNG1
T12 chain: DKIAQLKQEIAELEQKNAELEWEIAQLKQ

4H568-bA = target: T13, 4H568-bA; assay: two-hybrid library CCNG1
T13 chain: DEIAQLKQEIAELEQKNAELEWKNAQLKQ

4H3606-bA = target: T14, 4H3606-bA; assay: two-hybrid library CCNG1
T14 chain: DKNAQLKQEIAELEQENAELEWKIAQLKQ

4H1845-bA = target: T15, 4H1845-bA; assay: two-hybrid library CCNG1
T15 chain: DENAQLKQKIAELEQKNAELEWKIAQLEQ

4H1369-bA = target: T16, 4H1369-bA; assay: two-hybrid library CCNG1
T16 chain: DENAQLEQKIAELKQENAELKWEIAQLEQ

4H883-bA = target: T17, 4H883-bA; assay: two-hybrid library CCNG1
T17 chain: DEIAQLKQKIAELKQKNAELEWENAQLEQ

4H967-bA = target: T18, 4H967-bA; assay: two-hybrid library CCNG1
T18 chain: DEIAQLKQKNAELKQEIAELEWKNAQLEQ

4H3843-bA = target: T19, 4H3843-bA; assay: two-hybrid library CCNG1
T19 chain: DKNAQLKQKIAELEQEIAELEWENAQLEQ

4H2576-bA = target: T20, 4H2576-bA; assay: two-hybrid library CCNG1
T20 chain: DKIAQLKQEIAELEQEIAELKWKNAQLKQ

4H2697-bA = target: T21, 4H2697-bA; assay: two-hybrid library CCNG1
T21 chain: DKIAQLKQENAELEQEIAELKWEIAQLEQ

4H953-bA = target: T22, 4H953-bA; assay: two-hybrid library CCNG1
T22 chain: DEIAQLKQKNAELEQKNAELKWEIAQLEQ

4H72-bA = target: T23, 4H72-bA; assay: two-hybrid library CCNG1
T23 chain: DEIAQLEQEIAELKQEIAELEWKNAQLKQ

4H331-bA = target: T24, 4H331-bA; assay: two-hybrid library CCNG1
T24 chain: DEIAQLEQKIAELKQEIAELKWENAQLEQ

4H346-bH = target: T25, 4H346-bH; assay: two-hybrid library CCNG1
T25 chain: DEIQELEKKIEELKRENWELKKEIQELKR

4H607-bA = target: T26, 4H607-bA; assay: two-hybrid library CCNG1
T26 chain: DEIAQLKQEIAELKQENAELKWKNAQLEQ

P5SH = target: T27, P5SH; assay: two-hybrid library CCNG1
T27 chain: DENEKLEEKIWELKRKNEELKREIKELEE

P7SH = target: T28, P7SH; assay: two-hybrid library CCNG1
T28 chain: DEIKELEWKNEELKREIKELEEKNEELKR

P8SH = target: T29, P8SH; assay: two-hybrid library CCNG1
T29 chain: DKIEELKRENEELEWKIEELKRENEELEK

P4SH = target: T30, P4SH; assay: two-hybrid library CCNG1
T30 chain: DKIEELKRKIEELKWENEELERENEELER

P6SH = target: T31, P6SH; assay: two-hybrid library CCNG1
T31 chain: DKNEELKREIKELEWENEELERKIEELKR

O9 = target: T32, O9; assay: two-hybrid library CC0; settings: mean of both orientations
T32 chain: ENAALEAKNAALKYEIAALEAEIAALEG

O14 = target: T33, O14; assay: two-hybrid library CC0; settings: mean of both orientations
T33 chain: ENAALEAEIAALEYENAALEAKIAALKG

O7 = target: T34, O7; assay: two-hybrid library CC0; settings: mean of both orientations
T34 chain: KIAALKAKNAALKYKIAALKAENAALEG

O6 = target: T35, O6; assay: two-hybrid library CC0; settings: mean of both orientations
T35 chain: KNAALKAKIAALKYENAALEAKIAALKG

O10 = target: T36, O10; assay: two-hybrid library CC0; settings: mean of both orientations
T36 chain: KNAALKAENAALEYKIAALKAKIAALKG

O4 = target: T37, O4; assay: two-hybrid library CC0; settings: mean of both orientations
T37 chain: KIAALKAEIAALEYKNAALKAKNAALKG

O15 = target: T38, O15; assay: two-hybrid library CC0; settings: mean of both orientations
T38 chain: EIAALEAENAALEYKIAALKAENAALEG

O2 = target: T39, O2; assay: two-hybrid library CC0; settings: mean of both orientations
T39 chain: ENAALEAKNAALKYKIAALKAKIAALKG

O8 = target: T40, O8; assay: two-hybrid library CC0; settings: mean of both orientations
T40 chain: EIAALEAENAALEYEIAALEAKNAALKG

O11 = target: T41, O11; assay: two-hybrid library CC0; settings: mean of both orientations
T41 chain: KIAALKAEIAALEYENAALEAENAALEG

O3 = target: T42, O3; assay: two-hybrid library CC0; settings: mean of both orientations
T42 chain: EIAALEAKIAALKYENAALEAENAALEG

O12 = target: T43, O12; assay: two-hybrid library CC0; settings: mean of both orientations
T43 chain: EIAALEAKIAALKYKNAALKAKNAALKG

O5 = target: T44, O5; assay: two-hybrid library CC0; settings: mean of both orientations
T44 chain: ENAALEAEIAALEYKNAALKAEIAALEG

O16 = target: T45, O16; assay: two-hybrid library CC0; settings: mean of both orientations
T45 chain: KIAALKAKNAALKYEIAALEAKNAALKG

O13 = target: T46, O13; assay: two-hybrid library CC0; settings: mean of both orientations
T46 chain: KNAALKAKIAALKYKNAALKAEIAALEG

DENAQLEQKIAELEQKIAELKWKNAQLKQ [4H1328-bA]
interaction score (4H1446-bA): 0.372 | interaction score (4H4001-bA): 1.48 | interaction score (4H797-bA): -1.68 | interaction score (4H687-bA): -0.983 | interaction score (4H2667-bA): 0.432 | interaction score (4H918-bA): -0.412 | interaction score (4H462-bA): -0.405 | interaction score (4H1328-bA): 1.62 | interaction score (4H3189-bA): -0.907 | interaction score (4H370-bA): -0.958 | interaction score (4H3782-bA): 0.142 | interaction score (4H2610-bA): -0.633 | interaction score (4H568-bA): -0.0125 | interaction score (4H3606-bA): 0.221 | interaction score (4H1845-bA): -0.257 | interaction score (4H1369-bA): -0.903 | interaction score (4H883-bA): -0.916 | interaction score (4H967-bA): -0.292 | interaction score (4H3843-bA): 1.8 | interaction score (4H2576-bA): 1.95 | interaction score (4H2697-bA): 0.429 | interaction score (4H953-bA): -0.977 | interaction score (4H72-bA): 1.25 | interaction score (4H331-bA): 1.02 | interaction score (4H346-bH): 0.114 | interaction score (4H607-bA): -0.918

DKIEELKRKIEELKWENEELERENEELER [P4SH]
interaction score (P5SH): -0.643 | interaction score (P7SH): -1.17 | interaction score (P8SH): -0.776 | interaction score (P4SH): -0.1 | interaction score (P6SH): -0.892

KNAALKAENAALEYKIAALKAKIAALKG [O10]
interaction score (O9): 1.47 | interaction score (O14): -2.57 | interaction score (O7): -2.72 | interaction score (O6): -2.76 | interaction score (O10): -2.67 | interaction score (O4): -2.63 | interaction score (O15): -2.76 | interaction score (O2): -1.28 | interaction score (O8): -2.5 | interaction score (O11): -2.65 | interaction score (O3): -2.6 | interaction score (O12): -2.82 | interaction score (O5): -1.82 | interaction score (O16): -2.56 | interaction score (O13): -2.76
